Measured values published in patent publication US7595158B2, “Bcl2L12 polypeptide activators and inhibitors” (Dana-Farber Cancer Institute, Inc., priority 2003, dated 2009).

Assays:
[1] = system: Ink4a-/-/Arf-/- astrocytes; experiment: Annexin V staining of STS-treated Ink4a/Arf deficient astrocytes (FACS); type: cell-based, mouse
Protocol: The following experiments were performed to determine whether the Bcl2L12 polypeptide influenced cell survival or apoptosis. Ink4a^−/−/Arf^−/− astrocytes retro-virally infected with vector alone (pBabe) or vector containing Bcl2 nucleic acid, Bcl2L12-V5 nucleic acid, R-RAS nucleic acid, or IRF3 nucleic acid were […] After this one day incubation, the cells were stained with annexin V (Roche). Annexin V-positive cells were determined by FACScan analysis (mean±S.D.; three independent experiments with each being performed in triplicate).
After STS treatment, the cells were analyzed for apoptosis by assessing annexin V binding and DNA fragmentation using a FACS based analysis.

[2] = system: Ink4a/Arf deficient astrocytes; experiment: Cell growth of transfected Ink4a/Arf deficient astrocytes over six days; type: cell-based, mouse; conditions: LacZ about 1.5×10^6 cells
Protocol: (§1) Ink4a/Arf deficient astrocytes transfected with a vector encoding either LacZ, Bcl2L12-V5, or EGFR* polypeptides were cultured for six days. Each day, the number of cells in each culture was determined. In addition, stably transfected cells were harvested and assessed for the phosphorylation of Erk1/2 (p44/p42).

[3] = system: p53 mediated transcription; experiment: p53 luciferase reporter (PG13) in Ink4a/Arf deficient astrocytes; type: cell-based; conditions: normalized to βGal, vs vector control
Text: Activation of the p53 transcription factor in response to a variety of cellular stresses, including DNA damage and oncogene activation, initiates a program of gene expression that blocks the proliferative expansion of damaged cells. To asses the effect of Bcl2L12 polypeptides on p53 mediated transcription, Ink4a/Arf deficient astrocytes ectopically expressing a Bcl2L12-V5 polypeptide were transfected with increasing amounts of nucleic acid encoding a p53 polypeptide and a luciferase construct bearing a dimerized p53 binding site in its promoter (PG13).

[4] = system: Ink4a/Arf deficient astrocytic cell cultures; experiment: Nuclear swelling (Nicoletti method) in Ink4a/Arf deficient astrocytes; type: cell-based, mouse; conditions: STS 500 nM 24 hours; vector only about 42 percent
Protocol: To quantify nuclear swelling in Ink4a/Arf deficient astrocytic cell cultures, cells transfected with vector only or a vector encoding a Bcl2L12-V5 polypeptide were treated with or without STS (500 nM) for 24 hours, lysed, and stained with Propidium Iodide (Nicoletti method). Nuclei with increased forward scatter (i.e., increased size) were defined as swollen, and the number of those nuclei relatively to the total number of nuclei was expressed as the percent swelling.

[5] = system: Ink4a-/-/Arf-/- astrocytes; experiment: Growth of transduced Ink4a-/-/Arf-/- astrocytes under normal and low-serum conditions; type: cell-based, mouse
Text: The Bcl2L12-V5, R-RAS, and IRF3 nucleic acid sequences were cloned into expression vectors. Controls included expression vectors containing EGFR or Bcl2 nucleic acid sequences. The encoded polypeptides were expressed in primary astrocytes and tested for cell growth, transformation, and apoptosis activities. Primary astrocytes deficient for Ink4a/Arf (e.g., Ink4a^−/−/Arf^−/− astrocytes) were used given the prominence of this tumor suppressor lesion in advanced human gliomas. The following was performed to assess growth characteristics under normal growth conditions. Mouse Ink4a^−/−/Arf^−/− astrocytes were retro-virally transduced with pBabe vector alone; Bcl2L12-V5 nucleic acid; R-RAS nucleic acid; IRF3 nucleic acid; EGFR* nucleic acid; or Bcl2 nucleic acid. After retro-viral infection, transduced mouse Ink4a^−/−/Arf^−/− astrocytes were subjected to puromycin (2 μg/mL) selection for four days and plated at a density of 1×10^5 cells/10 cm dish using 10% FBS-DMEM medium. All transduced Ink4a^−/−/Arf^−/− astrocytes were counted each day for five days to determine cell numbers (mean±S.D.; three independent experiments with each being performed in triplicate).
The following was performed to assess growth characteristics under low-serum growth conditions. Retro-virally transduced mouse Ink4a^−/−/Arf^−/− astrocytes (1×10^6 cells/10 cm dish) were allowed to attach onto plates in 10% FBS-DMEM medium for five hours. After five hours, the medium was changed to 0.1% FBS-DMEM, and the cells were allowed to grow for three days. After three days in 0.1% FBS, the cells were counted to determine cell numbers (mean±S.D.; three independent experiments with each being performed in triplicate). The number of Ink4a^−/−/Arf^−/− astrocytes infected with pBabe-vector was set to 1.0.

astrocytes [6] = experiment: Plasma membrane integrity (SYTOX Green) and LEHDase activity in STS-treated astrocytes; type: cell-based; conditions: range of STS concentrations
Protocol: To assess and quantify plasma membrane integrity, vector or Bcl2L12-V5 transfected astrocytes were treated with or without STS (500 nM) for 24 hours and stained with a combination of Hoechst (a DNA intercalating dye that enters living as well as apoptotic or necrotic cells) and SYTOX Green (a green fluorescent dye that only enters cells with a disintegrated plasma membrane). FIG. 4B is a picture of STS treated and untreated cells transfected with either a control vector (pBabe) of a vector encoding a Bcl2L12-V5 polypeptide.
In addition, the green cells were counted over a range of different STS concentration (FIG. 4C; bars), and caspase-9 activity was determined by quantifying LEHDase activity in the corresponding cell lysates (FIG. 4C; histogram). […] SYTOX green positive cells were also quantified using a FACS based analysis assessing the increase in green fluorescence.

BJAB and SKW6.4 cells = experiment: Apoptosis of lymphoid cells stimulated with anti-CD95 or STS (FACS scatter); type: cell-based; conditions: anti-CD95 or STS 24 hours, GFP positive cells
Protocol: In addition, BJAB and SKW6.4 cells were co-transfected (1:3 ratio) with a vector encoding GFP and either an empty vector control or a vector encoding Bcl2L12-V5. After 24 hours, the transfected cells were stimulated with anti-CD95 or STS for 24 hours at different concentrations. The cells were analyzed by FACS. A gate was set only on GFP positive cells. Apoptosis was defined as an increase in sideward scatter and a decrease in forward scatter. SKW6.4 cells are type I B cells, while BJAB cells are type II B cells.

Erk1 and Erk2 = experiment: Phosphorylation of Erk1/2 (p44/p42) in transfected astrocytes; type: cell-based; conditions: vs control cells expressing LacZ
Protocol: as §1

astrocytes [7] = experiment: Mitochondrial membrane potential (JC-1, FACS) in STS-treated astrocytes; type: cell-based
Text: Like nuclear swelling and plasma membrane integration, a loss of the mitochondrial membrane potential is a hallmark of […]. To determine the dissipation of ΔΨM, STS treated astrocytes transfected with either vector only (pBabe) or a vector encoding a Bcl2L12-V5 polypeptide were stained with JC-1, and cells with an increase in fluorescence (FL-1) were quantified using FACS analysis. JC-1 (5,5′,6,6′-tetrachloro-1,1′,3,3′-tetraethylbenzimidazolylcarbocyanine iodide) is a green-fluorescent probe that exists as a monomer at low concentrations or at low membrane potential. […] Thus, the emission of this cyanine dye can be used as a sensitive measure of mitochondrial membrane potential.

B1: Bcl2L12-V5: Bcl2L12 polypeptide having the V5 epitope tag, ectopically expressed from pBabe-Bcl2L12-V5 vector; human amino acid sequence 1-334 (protein)
chain: MGRPAGLFPPLCPFLGFRPEACWERHMQIERAPSVPPFLRWAGYRPGPVRRRGKVELIKFVRVQWRRPQVEWRRRRWGPGPGASMAGSEELGLREDTLRVLAAFLRRGEAAGSPVPTPPRSPAQEEPTDFLSRLRRCLPCSLGRGAAPSESPRPCSLPIRPCYGLEPGPATPDFYALVAQRLEQLVQEQLKSPPSPELQGPPSTEKEAILRRLVALLEEEAEVINQKLASDPALRSKLVRLSSDSFARLVELFCSRDDSSRPSRACPGPPPPSPEPLARLALAMELSRRVAGLGGTLAGLSVEHVHSFTPWIQAHGGWEGILAVSPVDLNLPLD
modifications: left off: small tags and cut ends
annexin-V positive cells ([1]; 100 nM staurosporine one day, control cultures about 17-22 percent): 6-7% | annexin V+/PI- cells ([1]; 500 nM STS, pBabe about 20 percent): about 6% | cell number on day 6 [2]: about 3.8×10^6 cells | transcriptional activity of p53 (reporter activity) [3]: marked decrease of transcriptional activity | swelling (nuclei) [4]: about 67% | resistance to growth inhibition by low serum culture ([5]; 0.1% FBS, three days, vs pBabe): significantly resistant to growth inhibition | growth / proliferation under normal growth conditions ([5]; over-expression, 10% FBS, vs vector only): significant increase in growth | SYTOX Green positivity (astrocytes [6]): significantly increased | caspase-9 activity (LEHDase) (astrocytes [6]): dramatically reduced | apoptosis (BJAB and SKW6.4 cells): promoted apoptosis | levels of Erk1 and Erk2 phosphorylation (Erk1 and Erk2): higher | dissipated mitochondrial membrane potential (astrocytes [7]): marked increase in the dissipated membrane potential
